The values below come from patent US20120107323A1, “KINASE PROTEIN BINDING INHIBITORS” (University of Florida, published 2012).

Test [1] addresses T1, Insulin-like Growth Factor 1 Receptor (IGF-1R), endogenous, of C8161 and A375 melanoma cells (human, UniProt P08069). The experiment in a line: co-immunoprecipitation from C8161 tumours of PBS treated mice, densitometry of Western blot. Here is the method:
(§1) (p<0.05). […] To assess the in vivo effects of INT2-31 on cell proliferation, C8161 xenografts were stained with Ki67 antibody (FIG. 20C). […] The effect of INT2-31 on the in vivo interaction of FAK and IGF-1R in C8161 tumors was analyzed by immunoprecipitation of FAK from treated and untreated tumor. […] Finally, tumor analysis for AKT activation was performed and the level of p-AKT was detected by Western blot. […] Therefore, our lead compound, INT2-31, decreases in vivo tumor growth, disrupts the in vivo interaction of FAK and IGF-1R and results in a decrease in phosphorylation of AKT.

In test [2] the target is T1, Insulin-like Growth Factor 1 Receptor …. The experiment in a line: co-immunoprecipitation from C8161 tumours of mice treated with the small molecule INT2-31, densitometry of Western blot. On the procedure:
as §1
(Immunoblotting shows a protein as a band on a membrane.)

B1: Focal adhesion kinase (FAK), endogenous, of C8161 and A375 melanoma cells (enzyme)
chain: AAAYLDPNLNHTPNSSTKTHLGTGMERSPGAMERVLKVFHYFESNSEPTTWASIIRHGDATDVRGIIQKIVDSHKVKHVACYGFRLSHLRSEEVHWLHVDMGVSSVREKYELAHPPEEWKYELRIRYLPKGFLNQFTEDKPTLNFFYQQVKSDYMLEIADQVDQEIALKLGCLEIRRSYWEMRGNALEKKSNYEVLEKDVGLKRFFPKSLLDSVKAKTLRKLIQQTFRQFANLNREESILKFFEILSPVYRFDKECFKCALGSSWIISVELAIGPEEGISYLTDKGCNPTHLADFTQVQTIQYSNSEDKDRKGMLQLKIAGAPEPLTVTAPSLTIAENMADLIDGYCRLVNGTSQSFIIRPQKEGERALPSIPKLANSEKQGMRTHAVSVSETDDYAEIIDEEDTYTMPSTRDYEIQRERIELGRCIGEGQFGDVHQGIYMSPENPALAVAIKTCKNCTSDSVREKFLQEALTMRQFDHPHIVKLIGVITENPVWIIMELCTLGELRSFLQVRKYSLDLASLILYAYQLSTALAYLESKRFVHRDIAARNVLVSSNDCVKLGDFGLSRYMEDSTYYKASKGKLPIKWMAPESINFRRFTSASDVWMFGVCMWEILMHGVKPFQGVKNNDVIGRIENGERLPMPPNCPPTLYSLMTKCWAYDPSRRPRFTELKAQLSTILEEEKAQQEERMRMESRRQATVSWDSGGSDEAPPKPSRPGYPSPRSSEGFYPSPQHMVQTNHYQVSGYPGSHGITAMAGSIYPGQASLLDQTDSWNHRPQEIAMWQPNVEDSTVLDLRGIGQVLPTHLMEERLIRQQQEMEEDQRWLEKEERFLKPDVRLSRGSIDREDGSLQGPIGNQHIYQPVGKPDPAAPPKKPPRPGAPGHLGSLASLSSPADSYNEGVKLQPQEISPPPTANLDRSNDKVYENVTGLVKAVIEMSSKIQPAPPEEYVPMVKEVGLALRTLLATVDETIPLLPASTHREIEMAQKLLNSDLGELINKMKLAQQYVMTSLQQEYKKQMLTAAHALAVDAKNLLDVIDQARLKMLGQTRPH
On to B1, for which the results for the “densitometry ratio of IGF-1R to FAK” value in test [1] and in test [2] were 0.98 and 0.78, respectively.
